Laboratory results taken from patent US10941182 (Amgen, dated 2021).
Starred links: 1 amine or outer side, 2 acyl side, 3 side chain; linkers in the order of their positions; H or OH if unused. Non-standard residues stand in square brackets, D forms with d. *: point of attachment. AC4Abu = α-carboxy-4-aminobutyric acid, O=C(C(CCN[*:1])C(=O)[*:3])[*:2]; dBip = N[C@H](Cc1ccc(-c2ccccc2)cc1)C(=O)O; Oic = O=C(O)[C@@H]1C[C@@H]2CCCC[C@@H]2N1; Phe(4-Cl) = N[C@@H](Cc1ccc(Cl)cc1)C(=O)O; dPhe(4-Cl) = N[C@H](Cc1ccc(Cl)cc1)C(=O)O; Phe(4-I) = N[C@@H](Cc1ccc(I)cc1)C(=O)O; γGlu = O=C(O)[C@H](CCC(=O)[*:2])N[*:1]; HOOC(CH2)8CO = O=C(O)CCCCCCCCC(=O)*; NMeR = CN[C@@H](CCCNC(=N)N)C(=O)O; Tridecanoyl = CCCCCCCCCCCCC(=O)*; hArg = N=C(N)NCCCC[C@H](N)C(=O)O; Cha = N[C@@H](CC1CCCCC1)C(=O)O; NMeL = CN[C@@H](CC(C)C)C(=O)O; αMeL = CC(C)C[C@](C)(N)C(=O)O; β3hN = NC(=O)C[C@H](N)CC(=O)O; Nle = CCCC[C@H](N)C(=O)O; AEEA = NCCOCCOCC(=O)O; Aib = CC(C)(N)C(=O)O

T1: human APJ receptor (human, UniProt P35414 1-380)
T1 sequence (looked up): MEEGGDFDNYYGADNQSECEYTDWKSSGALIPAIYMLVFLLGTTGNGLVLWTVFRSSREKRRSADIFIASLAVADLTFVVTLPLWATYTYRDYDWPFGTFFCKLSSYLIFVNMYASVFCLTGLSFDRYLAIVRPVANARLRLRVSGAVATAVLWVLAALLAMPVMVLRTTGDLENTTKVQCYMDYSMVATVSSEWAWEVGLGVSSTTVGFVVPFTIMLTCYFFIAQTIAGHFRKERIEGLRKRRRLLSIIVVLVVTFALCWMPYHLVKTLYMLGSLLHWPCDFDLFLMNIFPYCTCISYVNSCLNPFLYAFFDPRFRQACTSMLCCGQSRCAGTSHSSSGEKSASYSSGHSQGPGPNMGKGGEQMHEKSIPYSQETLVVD

T2: rat APJ receptor (rat, UniProt Q9JHG3 1-377)
T2 sequence (looked up): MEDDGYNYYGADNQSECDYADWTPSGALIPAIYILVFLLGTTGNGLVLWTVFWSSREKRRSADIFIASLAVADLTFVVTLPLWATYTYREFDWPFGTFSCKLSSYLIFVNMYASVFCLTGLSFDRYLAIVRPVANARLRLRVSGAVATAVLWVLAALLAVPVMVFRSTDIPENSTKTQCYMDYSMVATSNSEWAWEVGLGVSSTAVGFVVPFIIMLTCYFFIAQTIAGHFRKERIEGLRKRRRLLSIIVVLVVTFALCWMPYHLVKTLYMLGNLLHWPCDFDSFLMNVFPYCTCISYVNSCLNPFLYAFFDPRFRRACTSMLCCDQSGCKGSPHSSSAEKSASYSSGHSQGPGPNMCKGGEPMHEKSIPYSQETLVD


How the values were obtained:
human APJ receptor = target: T1, human APJ receptor; assay: cell-based or functional assay
rat APJ receptor = target: T2, rat APJ receptor; assay: cell-based or functional assay

Row | Binder | EC50 Human APJ Receptor (human APJ receptor) | EC50 Rat APJ Receptor (rat APJ receptor)
1 | Tridecanoyl-[γGlu][AEEA][AEEA][β3hN][hArg]P[NMeR][Cha]SHKG[Oic][Nle]P[dPhe(4-Cl)]-OH (SMILES CCCCCCCCCCCCC(=O)N[C@@H](CCC(=O)NCCOCCOCC(=O)NCCOCCOCC(=O)N[C@@H](CC(N)=O)CC(=O)N[C@@H](CCCCNC(=N)N)C(=O)N1CCC[C@H]1C(=O)N(C)[C@@H](CCCNC(=N)N)C(=O)N[C@@H](CC1CCCCC1)C(=O)N[C@@H](CO)C(=O)N[C@@H](Cc1c[nH]cn1)C(=O)N[C@@H](CCCCN)C(=O)NCC(=O)N1[C@H](C(=O)N[C@@H](CCCC)C(=O)N2CCC[C@H]2C(=O)N[C@H](Cc2ccc(Cl)cc2)C(=O)O)C[C@@H]2CCCC[C@@H]21)C(=O)O) [SEQ ID NO: 299] | 24.4 nM | 14.6 nM
2 | Tridecanoyl-[γGlu][AEEA][AEEA][αMeL]RP[NMeR][αMeL]SHKG[Oic][Nle]P[Phe(4-Cl)]-OH (SMILES CCCCCCCCCCCCC(=O)N[C@@H](CCC(=O)NCCOCCOCC(=O)NCCOCCOCC(=O)N[C@@](C)(CC(C)C)C(=O)N[C@@H](CCCNC(=N)N)C(=O)N1CCC[C@H]1C(=O)N(C)[C@@H](CCCNC(=N)N)C(=O)N[C@@](C)(CC(C)C)C(=O)N[C@@H](CO)C(=O)N[C@@H](Cc1c[nH]cn1)C(=O)N[C@@H](CCCCN)C(=O)NCC(=O)N1[C@H](C(=O)N[C@@H](CCCC)C(=O)N2CCC[C@H]2C(=O)N[C@@H](Cc2ccc(Cl)cc2)C(=O)O)C[C@@H]2CCCC[C@@H]21)C(=O)O) [SEQ ID NO: 375] | 0.155 nM | 0.288 nM
3 | XXXXQRPRLSHKGPXPF ({TDA}[AC4Abu][AC4Abu][Aeea][Aeea]QRP[NMeArg]LSHKGP[Nle]P[4-Cl-F]{COOH}) [SEQ ID NO: 399] | 0.0335 nM | 0.104 nM
4 | XXXXXXXQRPRLSHKGPXPF ({TDA}[AC4Abu][Aeea][Aeea][Aeea][Aeea][Aeea][Aeea]QRP[NMeArg]LSHKGP[Nle]P[4-Cl-F]{COOH}) [SEQ ID NO: 398] | 0.0573 nM | 0.116 nM
5 | {HOOC(CH2)8CO}-[γGlu][AEEA][AEEA]Q[hArg]P[dR][NMeL]SHKG[Oic][Phe(4-I)]P[dBip]-OH (SMILES CC(C)C[C@@H](C(=O)N[C@@H](CO)C(=O)N[C@@H](Cc1c[nH]cn1)C(=O)N[C@@H](CCCCN)C(=O)NCC(=O)N1[C@H](C(=O)N[C@@H](Cc2ccc(I)cc2)C(=O)N2CCC[C@H]2C(=O)N[C@H](Cc2ccc(-c3ccccc3)cc2)C(=O)O)C[C@@H]2CCCC[C@@H]21)N(C)C(=O)[C@@H](CCCNC(=N)N)NC(=O)[C@@H]1CCCN1C(=O)[C@H](CCCCNC(=N)N)NC(=O)[C@H](CCC(N)=O)NC(=O)COCCOCCNC(=O)COCCOCCNC(=O)CC[C@H](NC(=O)CCCCCCCCC(=O)O)C(=O)O) [SEQ ID NO: 288] | 38.6 nM | 38.5 nM

Results, then the binder that gave them:

Row | EC50 Human APJ Receptor (human APJ receptor) | EC50 Rat APJ Receptor (rat APJ receptor) | Binder
6 | 0.683 nM | 3.75 nM | Tridecanoyl-[AC4Abu][AC4Abu][AEEA][AEEA][dQ]RP[NMeR][Cha]SHKG[Oic][Nle][Aib][Phe(4-Cl)]-OH (SMILES CCCCCCCCCCCCC(=O)NCCC(C(=O)O)C(=O)NCCC(C(=O)O)C(=O)NCCOCCOCC(=O)NCCOCCOCC(=O)N[C@H](CCC(N)=O)C(=O)N[C@@H](CCCNC(=N)N)C(=O)N1CCC[C@H]1C(=O)N(C)[C@@H](CCCNC(=N)N)C(=O)N[C@@H](CC1CCCCC1)C(=O)N[C@@H](CO)C(=O)N[C@@H](Cc1c[nH]cn1)C(=O)N[C@@H](CCCCN)C(=O)NCC(=O)N1[C@H](C(=O)N[C@@H](CCCC)C(=O)NC(C)(C)C(=O)N[C@@H](Cc2ccc(Cl)cc2)C(=O)O)C[C@@H]2CCCC[C@@H]21) [SEQ ID NO: 534]
7 | 0.179 nM | 0.865 nM | XXXQRPRLSHKGPXPF ({Sebacicacid}[AC4Abu][Aeea][Aeea]QRP[NMeArg]LSHKGP[Nle]P[4-Cl-F]{COOH}) [SEQ ID NO: 509]
8 | 0.592 nM | 2.03 nM | Tridecanoyl-[AC4Abu][AEEA][AC4Abu][dQ]RP[NMeR][Cha]SHKG[Oic][Nle][Aib][Phe(4-Cl)]-OH (SMILES CCCCCCCCCCCCC(=O)NCCC(C(=O)O)C(=O)NCCOCCOCC(=O)NCCC(C(=O)O)C(=O)N[C@H](CCC(N)=O)C(=O)N[C@@H](CCCNC(=N)N)C(=O)N1CCC[C@H]1C(=O)N(C)[C@@H](CCCNC(=N)N)C(=O)N[C@@H](CC1CCCCC1)C(=O)N[C@@H](CO)C(=O)N[C@@H](Cc1c[nH]cn1)C(=O)N[C@@H](CCCCN)C(=O)NCC(=O)N1[C@H](C(=O)N[C@@H](CCCC)C(=O)NC(C)(C)C(=O)N[C@@H](Cc2ccc(Cl)cc2)C(=O)O)C[C@@H]2CCCC[C@@H]21) [SEQ ID NO: 536]
9 | 0.0525 nM | 0.0838 nM | Tridecanoyl-[γGlu][AEEA][AEEA][β3hN]RP[NMeR]LSHKGP[Nle]P[Phe(4-Cl)]-OH (SMILES CCCCCCCCCCCCC(=O)N[C@@H](CCC(=O)NCCOCCOCC(=O)NCCOCCOCC(=O)N[C@@H](CC(N)=O)CC(=O)N[C@@H](CCCNC(=N)N)C(=O)N1CCC[C@H]1C(=O)N(C)[C@@H](CCCNC(=N)N)C(=O)N[C@@H](CC(C)C)C(=O)N[C@@H](CO)C(=O)N[C@@H](Cc1c[nH]cn1)C(=O)N[C@@H](CCCCN)C(=O)NCC(=O)N1CCC[C@H]1C(=O)N[C@@H](CCCC)C(=O)N1CCC[C@H]1C(=O)N[C@@H](Cc1ccc(Cl)cc1)C(=O)O)C(=O)O) [SEQ ID NO: 420]
10 | 0.798 nM | 5.15 nM | Tridecanoyl-[AC4Abu][AC4Abu][AEEA][dQ]RP[NMeR][Cha]SHKG[Oic][Nle][Aib][Phe(4-Cl)]-OH (SMILES CCCCCCCCCCCCC(=O)NCCC(C(=O)O)C(=O)NCCC(C(=O)O)C(=O)NCCOCCOCC(=O)N[C@H](CCC(N)=O)C(=O)N[C@@H](CCCNC(=N)N)C(=O)N1CCC[C@H]1C(=O)N(C)[C@@H](CCCNC(=N)N)C(=O)N[C@@H](CC1CCCCC1)C(=O)N[C@@H](CO)C(=O)N[C@@H](Cc1c[nH]cn1)C(=O)N[C@@H](CCCCN)C(=O)NCC(=O)N1[C@H](C(=O)N[C@@H](CCCC)C(=O)NC(C)(C)C(=O)N[C@@H](Cc2ccc(Cl)cc2)C(=O)O)C[C@@H]2CCCC[C@@H]21) [SEQ ID NO: 535]
11 | 0.629 nM | 3.88 nM | Tridecanoyl-[AC4Abu][AC4Abu][dQ]RP[NMeR][Cha]SHKG[Oic][Nle][Aib][Phe(4-Cl)]-OH (SMILES CCCCCCCCCCCCC(=O)NCCC(C(=O)O)C(=O)NCCC(C(=O)O)C(=O)N[C@H](CCC(N)=O)C(=O)N[C@@H](CCCNC(=N)N)C(=O)N1CCC[C@H]1C(=O)N(C)[C@@H](CCCNC(=N)N)C(=O)N[C@@H](CC1CCCCC1)C(=O)N[C@@H](CO)C(=O)N[C@@H](Cc1c[nH]cn1)C(=O)N[C@@H](CCCCN)C(=O)NCC(=O)N1[C@H](C(=O)N[C@@H](CCCC)C(=O)NC(C)(C)C(=O)N[C@@H](Cc2ccc(Cl)cc2)C(=O)O)C[C@@H]2CCCC[C@@H]21) [SEQ ID NO: 533]
12 | 0.0154 nM | 0.0793 nM | XXXQRPRLSHKGPXPF ({TDA}[AC4Abu][AC4Abu][Aeea]QRP[NMeArg]LSHKGP[Nle]P[4-Cl-F]{COOH}) [SEQ ID NO: 462]
